Biological target: T1, HLA-A*02:01 (human)
T1 construct: captured on streptavidin plates; also called peptide-receptive MHC molecules
Experiment: UV peptide exchange ELISA (anti-b2m); yield grade: + >10%, ++ >20%, +++ >50, ++++ >75%
Text: Candidate peptides for T cell based therapies according to the present invention were further tested for their MHC binding capacity (affinity). The individual peptide-MHC complexes were produced by UV-ligand exchange, where a UV-sensitive peptide is cleaved upon UV-irradiation, and exchanged with the peptide of interest as analyzed. Only peptide candidates that can effectively bind and stabilize the peptide-receptive MHC molecules prevent dissociation of the MHC complexes. To determine the yield of the exchange reaction, an ELISA was performed based on the detection of the light chain (β2m) of stabilized MHC complexes. The assay was performed as generally described in Rodenko et al. (Rodenko et al., 2006).
96 well MAXISorp plates (NUNC) were coated over night with 2 ug/ml streptavidin in PBS at room temperature, washed 4× and blocked for 1 h at 37° C. in 2% BSA containing blocking buffer. Refolded HLA-A*02:01/MLA-001 monomers served as standards, covering the range of 15-500 ng/ml. Peptide-MHC monomers of the UV-exchange reaction were diluted 100 fold in blocking buffer. Samples were incubated for 1 h at 37° C., washed four times, incubated with 2 ug/ml HRP conjugated anti-β2m for 1 h at 37° C., washed again and detected with TMB solution that is stopped with […]. Absorption was measured at 450 nm. Candidate peptides that show a high exchange yield (preferably higher than 50%, most preferred higher than 75%) are generally preferred for a generation and production of antibodies or fragments thereof, and/or T cell receptors or fragments thereof, as they show sufficient avidity to the MHC molecules and prevent dissociation of the MHC complexes.

Binder	peptide exchange yield [%]
FLDVKELML	> 75
KMTQYITEL	> 75
NLREILQNV	50 to 75
NVDENVAEL	20 to 50
RLPDQFSKL	50 to 75
SLDAVMPHL	50 to 75
SLDQIIQHL	50 to 75
SLKQTVVTL	50 to 75
TLSEICEFI	> 75
TLVAFLQQV	> 75
TVIRPLPGL	20 to 50
VIDDLIQKL	20 to 50
TLIELLLPKL	> 75
VLDTLTKVL	50 to 75
VLDVSFNRL	50 to 75
VLPAVLTRL	50 to 75
VLYSLVSKI	50 to 75
VVDDIVSKL	20 to 50
YIDDVFMGL	50 to 75
LMDETMKEL	> 75
KQQASQVLV	50 to 75
TMIEICEKL	> 75
SLGLGFISRV	50 to 75

Binder	peptide exchange yield [%]
RLDDKTTNV	50 to 75
QLMEGKVVL	> 75
FLEDLVPYL	> 75
YVDDFGVSV	50 to 75
LLGEGIPSA	> 75
FLPQKIIYL	> 75
YLFAFLNHL	> 75
SLIDFVVTC	50 to 75
TLISDIEAVKA	50 to 75
ALFPGDVDRL	50 to 75
VLPDDLSGV	50 to 75
IQSETTVTV	> 75
GLVDVLYTA	50 to 75
FVDPNGKISL	50 to 75
FLDASGAKL	> 75
ALDPAYTTL	50 to 75
LLDEVLHTM	> 75
FLDDQETRL	50 to 75
FAYDGKDYIAL	50 to 75
ILPSNLLTV	50 to 75
YLDKTFYNL	50 to 75
AVDATVNQV	50 to 75
VLYEMLYGL	> 75

Binder	peptide exchange yield [%]
RLEAYLARV	50 to 75
YVIDPIKGL	50 to 75
FVDGSAIQV	50 to 75
ILDDSALYL	> 75
SVDEVEISV	50 to 75
TLPNIYVTL	50 to 75
GVGPVPARA	50 to 75
ILDDQTNKL	50 to 75
TLKDIVQTV	50 to 75
YLDTFALKL	> 75
VLYDPVVGC	> 75
KLFPSPLQTL	> 75
FLGEPASYLYL	> 75
IMEDFTTFL	> 75
RLDEVSREL	50 to 75
TLGTATFTV	> 75
GLAGFFASV	> 75
ALMDTDGSGKLNL	50 to 75
HLFETISQA	50 to 75
KLIPSIIVL	50 to 75
TILATVPLV	> 75

Reference: US20190040115A1 (IMMATICS BIOTECHNOLOGIES, published 2019)
